Our source for the response values is PMC10183829 (2023).

B1: mCh-HsC53 [human] / GST-ATG8A [Arabidopsis thaliana] (parent complex)
chain 1: MEDHQHVPIDIQTSKLLDWLVDRRHCSLKWQSLVLTIREKINAAIQDMPESEEIAQLLSGSYIHYFHCLRILDLLKGTEASTKNIFGRYSSQRMKDWQEIIALYEKDNTYLVELSSLLVRNVNYEIPSLKKQIAKCQQLQQEYSRKEEECQAGAAEMREQFYHSCKQYGITGENVRGELLALVKDLPSQLAEIGAAAQQSLGEAIDVYQASVGFVCESPTEQVLPMLRFVQKRGNSTVYEWRTGTEPSVVERPHLEELPEQVAEDAIDWGDFGVEAVSEGTDSGISAEAAGIDWGIFPESDSKDPGGDGIDWGDDAVALQITVLEAGTQAPEGVARGPDALTLLEYTETRNQFLDELMELEIFLAQRAVELSEEADVLSVSQFQLAPAILQGQTKEKMVTMVSVLEDLIGKLTSLQLQHLFMILASPRYVDRVTEFLQQKLKQSQLLALKKELMVQKQQEALEEQAALEPKLDLLLEKTKELQKLIEADISKRYSGRPVNLMGTSL
chain 2: MAKSSFKISNPLEARMSESSRIREKYPDRIPVIVEKAGQSDVPDIDKKKYLVPADLTVGQFVYVVRKRIKLGAEKAIFVFVKNTLPPTAALMSAIYEEHKDEDGFLYMTYSGENTFG

This test covers variants of B1. Put plainly: microscopy-based protein-protein interaction assay (on-bead binding, confocal); 1 μM C53 protein; glutathione-sepharose beads with GST-ATG8A; read off a plot.
Take chain 1 MEDHQHVPIDIQTSKLLDWLVDRRHCSLKWQSLVLTIREKINAAIQDMPESEEIAQLLSGSYIHYFHCLRILDLLKGTEASTKNIFGRYSSQRMKDWQEIIALYEKDNTYLVELSSLLVRNVNYEIPSLKKQIAKCQQLQQEYSRKEEECQAGAAEMREQFYHSCKQYGITGENVRGELLALVKDLPSQLAEIGAAAQQSLGEAIDVYQASVGFVCESPTEQVLPMLRFVQKRGNSTVYEWRTGTEPSVVERPHLEELPEQVAEDAIDAGDFGVEAVSEGTDSGISAEAAGIDAGIFPESDSKDPGGDGIDAGDDAVALQITVLEAGTQAPEGVARGPDALTLLEYTETRNQFLDELMELEIFLAQRAVELSEEADVLSVSQFQLAPAILQGQTKEKMVTMVSVLEDLIGKLTSLQLQHLFMILASPRYVDRVTEFLQQKLKQSQLLALKKELMVQKQQEALEEQAALEPKLDLLLEKTKELQKLIEADISKRYSGRPVNLMGTSL [chain 1 W269A, chain 1 W294A, chain 1 W312A]: the response was around 0.25 normalized fluorescence.
